Assay results from the Immune Epitope Database (IEDB).

What was measured:
HLA-B*39:01 = experiment: IEDB peptide-MHC binding, purified MHC/competitive/fluorescence; filed as Kd, often an IC50 or EC50 that approximates it; ≥ and ≤ were set here for values at or beyond the usual limits of such assays; settings: source organism: Plesiomonas shigelloides
HLA-A*02:16 = experiment: as above; settings: source organism: Plesiomonas shigelloides
HLA-A*69:01 = experiment: as above; settings: source organism: Plesiomonas shigelloides
HLA-A*23:01 [1] = experiment: as above; settings: source organism: Plesiomonas shigelloides
HLA-B*46:01 = experiment: as above; settings: source organism: Plesiomonas shigelloides
HLA-A*02:19 = experiment: as above; settings: source organism: Plesiomonas shigelloides
HLA-B*27:03 [2] = experiment: as above; settings: source organism: Plesiomonas shigelloides
HLA-B*57:01 [3] = experiment: as above; settings: source organism: Plesiomonas shigelloides
HLA-A*26:01 = experiment: as above; settings: source organism: Plesiomonas shigelloides
HLA-A*29:02 [4] = experiment: as above; settings: source organism: Plesiomonas shigelloides
HLA-A*02:01 = experiment: as above; settings: source organism: Plesiomonas shigelloides
HLA-A*02:12 = experiment: as above; settings: source organism: Plesiomonas shigelloides
HLA-A*68:02 [5] = experiment: as above; settings: source organism: Plesiomonas shigelloides
HLA-B*51:01 = experiment: as above
HLA-A*24:03 [6] = experiment: as above; settings: source organism: Plesiomonas shigelloides
HLA-A*80:01 = experiment: as above; settings: source organism: Plesiomonas shigelloides
HLA-A*02:03 = experiment: as above; settings: source organism: Plesiomonas shigelloides
HLA-C*12:03 = experiment: IEDB peptide-MHC binding, purified MHC/direct/fluorescence; filed as Kd, often an IC50 or EC50 that approximates it; ≥ and ≤ were set here for values at or beyond the usual limits of such assays; settings: source organism: Giardia lamblia ATCC 50803
HLA-B*18:01 = experiment: as above; settings: source organism: Giardia lamblia ATCC 50803
HLA-A*23:01 [7] = experiment: as above; settings: source organism: Giardia lamblia ATCC 50803
HLA-A*03:01 = experiment: as above; settings: source organism: Giardia lamblia ATCC 50803
HLA-B*27:03 [8] = experiment: as above; settings: source organism: Giardia lamblia ATCC 50803
HLA-B*57:01 [9] = experiment: as above; settings: source organism: Giardia lamblia ATCC 50803
HLA-A*29:02 [10] = experiment: as above; settings: source organism: Giardia lamblia ATCC 50803
HLA-C*05:01 = experiment: as above; settings: source organism: Giardia lamblia ATCC 50803
HLA-A*68:02 [11] = experiment: as above; settings: source organism: Giardia lamblia ATCC 50803
HLA-A*24:03 [12] = experiment: as above; settings: source organism: Giardia lamblia ATCC 50803
HLA-A*66:01 = experiment: as above; settings: source organism: Giardia lamblia ATCC 50803
HLA-A*68:23 = experiment: IEDB peptide-MHC binding, purified MHC/competitive/fluorescence; filed as Kd, often an IC50 or EC50 that approximates it; ≥ and ≤ were set here for values at or beyond the usual limits of such assays; settings: source organism: Giardia lamblia ATCC 50803
HLA-A*11:01 = experiment: as above; settings: source organism: Giardia lamblia ATCC 50803
HLA-B*58:01 = experiment: as above; settings: source organism: Giardia lamblia ATCC 50803
HLA-B*83:01 = experiment: as above; settings: source organism: Giardia lamblia ATCC 50803
HLA-B*45:06 = experiment: as above; settings: source organism: Giardia lamblia ATCC 50803
HLA-C*14:02 = experiment: as above; settings: source organism: Giardia lamblia ATCC 50803
HLA-A*30:02 = experiment: as above; settings: source organism: Giardia lamblia ATCC 50803
HLA-B*14:02 = experiment: as above; settings: source organism: Giardia lamblia ATCC 50803
HLA-B*07:02 = experiment: as above; settings: source organism: Giardia lamblia ATCC 50803
HLA-B*40:01 = experiment: as above; settings: source organism: Giardia lamblia ATCC 50803
HLA-B*27:05 = experiment: as above; settings: source organism: Giardia lamblia ATCC 50803
HLA-B*44:02 = experiment: as above; settings: source organism: Giardia lamblia ATCC 50803
HLA-B*15:42 = experiment: as above; settings: source organism: Giardia lamblia ATCC 50803
HLA-A*01:01 = experiment: as above; settings: source organism: Giardia lamblia ATCC 50803
HLA-B*53:01 = experiment: as above; settings: source organism: Giardia lamblia ATCC 50803
HLA-B*08:01 = experiment: as above; settings: source organism: Giardia lamblia ATCC 50803

Question: With LLFRMILNY as the sequence, how does the Kd (HLA-B*39:01) read?
Answer: Its Kd is at least 20 µM.

Question: And the Kd (HLA-A*02:16)?
Answer: The Kd was at least 20 µM.

Question: And the Kd (HLA-A*69:01)?
Answer: Its Kd is at least 20 µM.

Question: What about the Kd (HLA-A*23:01 [1]) of the same sequence?
Answer: Its Kd is at least 20 µM.

Question: What about the Kd (HLA-B*46:01) of the same sequence?
Answer: The Kd was at least 20 µM.

Question: And the Kd (HLA-A*02:19)?
Answer: The Kd was at least 20 µM.

Question: And the Kd (HLA-B*27:03 [2])?
Answer: Its Kd is at least 20 µM.

Question: What about the Kd (HLA-B*57:01 [3]) of the same sequence?
Answer: The Kd was at least 20 µM.

Question: What about the Kd (HLA-A*26:01) of the same sequence?
Answer: Its Kd is at least 20 µM.

Question: What about the Kd (HLA-A*29:02 [4]) of the same sequence?
Answer: Its Kd is 0.005 µM.

Question: What about the Kd (HLA-A*02:01) of the same sequence?
Answer: The Kd was at least 20 µM.

Question: What about the Kd (HLA-A*02:12) of the same sequence?
Answer: Its Kd is at least 20 µM.

Question: And the Kd (HLA-A*68:02 [5])?
Answer: Its Kd is at least 20 µM.

Question: And the Kd (HLA-B*51:01; source organism: Plesiomonas shigelloides)?
Answer: The Kd was at least 20 µM.

Question: And the Kd (HLA-A*24:03 [6])?
Answer: The Kd was at least 20 µM.

Question: And the Kd (HLA-A*80:01)?
Answer: Its Kd is 0.0259 µM.

Question: What about the Kd (HLA-A*02:03) of the same sequence?
Answer: The Kd was at least 20 µM.

Question: With MTYLDGHPV as the sequence, how does the Kd (HLA-C*12:03) read?
Answer: Its Kd is 0.153 µM.

Question: And the Kd (HLA-B*18:01)?
Answer: Its Kd is at least 20 µM.

Question: And the Kd (HLA-A*23:01 [7])?
Answer: The Kd was at least 20 µM.

Question: What about the Kd (HLA-A*03:01) of the same sequence?
Answer: Its Kd is at least 20 µM.

Question: And the Kd (HLA-B*27:03 [8])?
Answer: The Kd was at least 20 µM.

Question: What about the Kd (HLA-B*57:01 [9]) of the same sequence?
Answer: Its Kd is at least 20 µM.

Question: And the Kd (HLA-A*29:02 [10])?
Answer: The Kd was 0.006 µM.

Question: What about the Kd (HLA-C*05:01) of the same sequence?
Answer: The Kd was at least 20 µM.

Question: And the Kd (HLA-A*68:02 [11])?
Answer: Its Kd is at most 0.001 µM.

Question: And the Kd (HLA-A*24:03 [12])?
Answer: The Kd was at least 20 µM.

Question: And the Kd (HLA-A*66:01)?
Answer: Its Kd is 0.134 µM.

Question: What about the Kd (HLA-A*68:23) of the same sequence?
Answer: The Kd was at most 0.0001 µM.

Question: What about the Kd (HLA-A*11:01) of the same sequence?
Answer: The Kd was 0.138 µM.

Question: What about the Kd (HLA-B*58:01) of the same sequence?
Answer: The Kd was at least 5 µM.

Question: What about the Kd (HLA-B*83:01) of the same sequence?
Answer: The Kd was at least 5 µM.

Question: And the Kd (HLA-B*45:06)?
Answer: Its Kd is at least 5 µM.

Question: What about the Kd (HLA-C*14:02) of the same sequence?
Answer: Its Kd is 0.0303 µM.

Question: And the Kd (HLA-A*30:02)?
Answer: Its Kd is at least 5 µM.

Question: What about the Kd (HLA-B*14:02) of the same sequence?
Answer: Its Kd is at least 5 µM.

Question: What about the Kd (HLA-B*07:02) of the same sequence?
Answer: Its Kd is at least 5 µM.

Question: What about the Kd (HLA-B*40:01) of the same sequence?
Answer: The Kd was at least 5 µM.

Question: What about the Kd (HLA-B*27:05) of the same sequence?
Answer: The Kd was at least 5 µM.

Question: What about the Kd (HLA-B*51:01; source organism: Giardia lamblia ATCC 50803) of the same sequence?
Answer: The Kd was at least 5 µM.

Question: And the Kd (HLA-B*44:02)?
Answer: The Kd was at least 5 µM.

Question: And the Kd (HLA-B*15:42)?
Answer: The Kd was at least 5 µM.

Question: What about the Kd (HLA-A*01:01) of the same sequence?
Answer: Its Kd is at least 5 µM.

Question: And the Kd (HLA-B*53:01)?
Answer: The Kd was at least 5 µM.

Question: What about the Kd (HLA-B*08:01) of the same sequence?
Answer: The Kd was at least 5 µM.
